In this test the target is T1, GAGE-1 peptide on HLA-DRA*01:01 / HLA-DRB5*01:01 (human).
T1 peptide: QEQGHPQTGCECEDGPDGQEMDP
The test is described as follows: cytokine release.

B1: TCR specific for GAGE-1 of SEQ ID NOs 7 and 8 (TCR, V domains shown)
Valpha: EDKVVQSPLSLVVHEGDTVTLNCSYEVTNFRSLLWYKQEKKAPTFLFMLTSSGIEKKSGRLSSILDKKELSSILNITATQTGDSAIYLCAERTQGGSEKLVFGKGTKLTVNP
Vbeta: DAGITQSPRHKVTETGTPVTLRCHQTENHRYMYWYRQDPGHGLRLIHYSYGVKDTDKGEVSDGYSVSRSKTEDFLLTLESATSSQTSVYFCATQRNTEAFFGQGTRLTVV
Turning to B1, the binding result is given as “recognises”.

The values are drawn from US20190002515A1 (published 2019).
